± gives the uncertainty stated by the source.
Assay: amyloid nucleation score (Sup35N fusion, yeast selection) (log enrichment); library NNK1; higher = more nucleation; inactive = no reads after selection
Method in brief: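 The nucleation score equals the log enrichment of output over input reads from DiMSum, centred on the mode score of non-aggregating sequences. It was computed only for sequences with 100 or more input reads. The reads came from Illumina sequencing of plasmid inserts from psi-negative yeast expressing Sup35N fused to peptides of 20 random codons, induced with 100 μM copper sulfate for 24 hours and grown 7 days at 30°C without adenine and uracil.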

| Substance | amyloid nucleation score |
| --- | --- |
| KLARTMGYTGTSMVACFCVV | inactive |
| RLYKFTGF | 1.09 ± 0.37 |
| TVSKNMYR | -0.259 ± 0.5 |
| YNCYREGAWSITIRWIANRV | 0.124 ± 0.34 |
| GIKAIKCDEPSCAVLGLNSS | -0.536 ± 0.5 |
| LLRVLFFCFSMRCRVGISVA | 0.86 ± 0.69 |
| LIRLMSQ | 1.83 ± 0.24 |
| FAFIDMHKGC | 1.69 ± 0.17 |
| QLETTLFGNAEACLFSSKGR | 0.522 ± 0.49 |
| FVFGTFA | 0.485 ± 0.59 |
| LVKNHYHFMANLGCP | 0.133 ± 1.4 |
| DIFYLCFRVYSEVGLSINVV | -0.529 ± 0.84 |
| LSTKRYDLHSTPRRPISPSR | 1.08 ± 0.41 |
| VKLSMLWLMARLWGRLTCSG | -0.293 ± 0.47 |
| GRHSWINGYKVEV | 6.938 ± 0.055 |
| YILSFFCVVEARDFFVDFEM | 5 ± 0.062 |
| RQIVEELTSGIVGSLEV | -0.48 ± 0.57 |
| LVRLTCDMNNFKCQLMFQIF | 1.17 ± 0.38 |
| SIGVFNCNCHRNYEHRYRYM | 1.22 ± 0.15 |
| QERTMVLMLHMYYSGCAILM | 0.761 ± 0.56 |
| FRGEVYELEIKGKILSSVFV | 0.121 ± 0.24 |
| SCSPPIA | 0.223 ± 0.46 |

| Substance | amyloid nucleation score |
| --- | --- |
| ISGSHFVSLPV | 0.518 ± 0.38 |
| SIFSSWMSWGLII | 0.194 ± 0.39 |
| NVDRSCWRRECPDCWVMLNM | 0.664 ± 0.49 |
| VRKISIFFMNSWVWLSSRFH | 0.069 ± 0.49 |
| HHKTFV | inactive |
| SNMEYVMNEILVRLALPTSR | -0.671 ± 1.5 |
| TVAFWF | inactive |
| YPTPLQVFVRSRFDRRI | -0.132 ± 0.26 |
| LLYYASVLRMKGTECPDGGD | -0.856 ± 2.4 |
| VSWECSIVNAYMQPATCDII | 4.88 ± 0.1 |
| FCLVMEFM | 0.606 ± 0.4 |
| CRLCVLCAMYGI | 0.939 ± 0.26 |
| LECSNSNLWCTPN | 0.712 ± 0.69 |
| LSHSEDVSQETTIYPNLSCN | -0.533 ± 0.68 |
| FSLDSRITANLTKWEEMLVQ | -0.779 ± 0.41 |
| GICLKMYYVSACWESNVDTI | 1.88 ± 0.18 |
| LNFWGACLIHYSWQNTIVLV | 2.28 ± 0.16 |
| VEVYFSFLNLIFSGMSVLVE | 0.129 ± 0.28 |
| VVVVKLQVQCDGESMSACLG | -0.495 ± 1.5 |
| YSHYNGTVAYRWEPQ | 0.901 ± 0.47 |
| ALAPPKNSFLLMLALILMLL | 0.093 ± 0.53 |
| HTSCRTVQHLKVWFPVK | 1.25 ± 0.74 |

| Substance | amyloid nucleation score |
| --- | --- |
| YSLEFSSFMLFLTCLVSYNY | -0.457 ± 0.4 |
| MLSKIFAHYSWSQAVTRAWG | 1.75 ± 0.58 |
| ITYKLFVISCNEKRNLICHN | -0.477 ± 0.32 |
| MIMDVVKGFVFRSSINSKRY | 3.27 ± 0.088 |
| MVMFHSSFLIDDTWICWNPF | 0.255 ± 0.47 |
| FDRRLCFVG | 0.024 ± 0.52 |
| SWYVVG | -0.373 ± 0.97 |
| GTTCGSLHRAWGLAKTGCNW | -0.388 ± 0.42 |
| NFMYTYTVTLRRGYGEVSCA | -0.071 ± 0.6 |
| VTHNSTAHE | 1.09 ± 0.75 |
| YVASLYQYFYLLIKIDCVFF | -0.824 ± 0.97 |
| KLFLLGAINGQFI | 4.87 ± 0.066 |
| VEIYGCTSPDQWSVANSCTA | 0.047 ± 0.36 |
| TGCCFYVSDHF | 7.88 ± 0.071 |
| FFFIN | -0.391 ± 0.47 |
| PMLFGVGRSFE | -0.377 ± 0.27 |
| CLLYCTYVMRLTMLKILVVI | 1.27 ± 0.63 |
| CNVEAG | -1.55 ± 1.1 |
| LRAPGTMVDRRCRGVWK | 0.356 ± 0.85 |
| WVLWYSLLLTDGGDLIESTW | -0.156 ± 0.23 |
| VNCFSTLSMLWMSVQTEPRV | 1.04 ± 0.28 |
| IMNMSSNIRK | -0.539 ± 0.34 |

| Substance | amyloid nucleation score |
| --- | --- |
| QPILPSPIRWFEESMDLVWG | -0.542 ± 0.4 |
| QFCMKSTPMSHFR | -0.772 ± 0.61 |
| SWLDLNLIDHQAFAFSSFGL | -0.043 ± 0.45 |
| DEVIF | 0.421 ± 0.52 |
| ARVTVNGFLWCYNLGIRLDF | -0.779 ± 1.6 |
| QGWSMVWYYSLESEETT | -0.377 ± 0.6 |
| TTSCNGLFERAKNSTNSPDI | -2.25 ± 2.4 |
| LVMYDSL | 0.489 ± 0.58 |
| FFFIQTSPLHAQYAISLVLR | -0.057 ± 0.52 |
| TTPFLHKENLNSIMK | 0.396 ± 0.26 |
| YPIYIVWVFIVITICVANDS | -0.072 ± 0.31 |
| CVKAD | -0.354 ± 0.54 |
| GRCSKYCGFASATCMNGGVS | 0.032 ± 0.32 |
| VWEQLIAE | -0.26 ± 0.84 |
| VYRLEVIARK | 1.69 ± 0.33 |
| DVANRVVSSFLIC | -0.525 ± 0.45 |
| IQYNSKIRVFALDYPIEFPC | 0.083 ± 0.61 |
| NSILFNGTQLD | -0.976 ± 0.35 |
| VTFLIMGWLRDRRV | -0.563 ± 0.39 |
| IVENARWKVAAEPRNRRSSV | 0.273 ± 0.58 |
| LKDRGYQKYFNSGLIGCNAS | -0.096 ± 0.47 |
| LVLMWLLSGYGAHHFYYAK | 0 ± 1.2 |

From the supplement of paper PMC12042874
